Laboratory results published in publication doi:10.1101/2025.07.12.664526 (bioRxiv, 2025).

What was measured:
[1] = molecular target: WalR T101M fused to SmBIT or LgBIT (split luciferase) (S. aureus ATCC29213) (UniProt Q7A8E1); assay: split reporter
[2] = molecular target: WalR, wild type, full-length, C-terminal 6xHis, phosphorylated by PknB^CYTO with ATP (S. aureus ATCC29213) (UniProt Q7A8E1); assay: SEC-MALS
[3] = molecular target: T1, WalR wild type fused to SmBIT or LgBIT (split luciferase) (S. aureus ATCC29213, UniProt Q7A8E1 1-233); assay: split reporter
T1 sequence (looked up): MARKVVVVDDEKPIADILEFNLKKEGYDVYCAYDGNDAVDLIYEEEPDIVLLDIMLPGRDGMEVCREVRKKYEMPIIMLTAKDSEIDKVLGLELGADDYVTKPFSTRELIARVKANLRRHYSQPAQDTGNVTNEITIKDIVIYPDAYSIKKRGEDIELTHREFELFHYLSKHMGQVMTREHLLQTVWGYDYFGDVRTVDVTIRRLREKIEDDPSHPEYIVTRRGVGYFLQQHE

[4] = molecular target: the molecule itself; assay: split reporter

“WalR T101M fused to SmBIT or LgBIT (split luciferase) (from UniProt Q7A8E1 1-233) (natural protein)” was tested, and the peak luciferase signal in the wild type background [1] was 4340 RLU, the peak luciferase signal in the ΔpknB background [1] was 3650 RLU and the percent decrease of peak luciferase signal area against wild type WalR/WalR [1] was 65.2%.

With “WalR, wild type, full-length, C-terminal 6xHis, phosphorylated by PknB^CYTO with ATP (from UniProt Q7A8E1 1-233) (natural protein)” the stoichiometry N [2] was 2.

B1: WalR T101M fused to SmBIT or LgBIT (split luciferase) (natural protein, S. aureus ATCC29213, UniProt Q7A8E1 1-233, looked up)
chain: MARKVVVVDDEKPIADILEFNLKKEGYDVYCAYDGNDAVDLIYEEEPDIVLLDIMLPGRDGMEVCREVRKKYEMPIIMLTAKDSEIDKVLGLELGADDYVMKPFSTRELIARVKANLRRHYSQPAQDTGNVTNEITIKDIVIYPDAYSIKKRGEDIELTHREFELFHYLSKHMGQVMTREHLLQTVWGYDYFGDVRTVDVTIRRLREKIEDDPSHPEYIVTRRGVGYFLQQHE
With B1 the “percent decrease of peak area against wild type WalR/WalR” value [3] was 56.5%.

B2: WalR T101A fused to SmBIT or LgBIT (split luciferase) (natural protein, S. aureus ATCC29213, UniProt Q7A8E1 1-233, looked up)
chain: MARKVVVVDDEKPIADILEFNLKKEGYDVYCAYDGNDAVDLIYEEEPDIVLLDIMLPGRDGMEVCREVRKKYEMPIIMLTAKDSEIDKVLGLELGADDYVAKPFSTRELIARVKANLRRHYSQPAQDTGNVTNEITIKDIVIYPDAYSIKKRGEDIELTHREFELFHYLSKHMGQVMTREHLLQTVWGYDYFGDVRTVDVTIRRLREKIEDDPSHPEYIVTRRGVGYFLQQHE
In the case of B2, the “percent decrease of peak area against wild type WalR/WalR” value [4] is reported as 56.7%.

B3: WalR T101S fused to SmBIT or LgBIT (split luciferase) (natural protein, S. aureus ATCC29213, UniProt Q7A8E1 1-233, looked up)
chain: MARKVVVVDDEKPIADILEFNLKKEGYDVYCAYDGNDAVDLIYEEEPDIVLLDIMLPGRDGMEVCREVRKKYEMPIIMLTAKDSEIDKVLGLELGADDYVSKPFSTRELIARVKANLRRHYSQPAQDTGNVTNEITIKDIVIYPDAYSIKKRGEDIELTHREFELFHYLSKHMGQVMTREHLLQTVWGYDYFGDVRTVDVTIRRLREKIEDDPSHPEYIVTRRGVGYFLQQHE
With B3 the “percent decrease of peak area against wild type WalR/WalR” value [4] was 52.4%.
